Assay results from patent publication US20200002431A1 (Seagen, published 2020).
Where a chain is given by its changes, count along the chain named.

B1: hSG16.17 vH2 vK3 (antibody, V domains shown)
VH: QVQLVQSGAEVKKPGASVKLSCKASGYTFTDYYMHWVRQAPGQGLEWIGRINPNSGYTNYAQKFQGRVTMTADKSINTAYVELSRLRSDDTAVYFCTRYMWERVTGFFDFWGQGTMVTVSS
VL: DIQMTQSPSSVSASVGDRVTITCRASEDISDDLAWYQQKPGKAPKVLVYTTSSLQSGVPSRFSGSGSGTDFTLTISSLQPEDFATYFCQQTYKFPPTFGGGTKVEIKR
notes: also called hSG16.17 6
B2: hSG16.17 vH2 vK5 (antibody, V domains shown)
VH: B1 VH
VL: B1 VL with P40S
notes: also called hSG16.17 8
B3: hSG16.17 vH2 vK4 (antibody, V domains shown)
VH: B1 VH
VL: B1 VL with R24L, S53R, L78M, T85D
notes: also called hSG16.17 7

The binders below were run against T1, human BCMA (B-cell maturation antigen, CD269) expressed on cells (human, UniProt Q02223 1-184) (assay: cell binding, U266 cells, full range of concentration points).
T1 construct: Endogenous on myeloma lines (NCI-H929, U266, JJN3) or a full-length clone transfected into HEK 293 cells; also called hBCMA; BCMA expressed on NCI-H929 cells
T1 sequence: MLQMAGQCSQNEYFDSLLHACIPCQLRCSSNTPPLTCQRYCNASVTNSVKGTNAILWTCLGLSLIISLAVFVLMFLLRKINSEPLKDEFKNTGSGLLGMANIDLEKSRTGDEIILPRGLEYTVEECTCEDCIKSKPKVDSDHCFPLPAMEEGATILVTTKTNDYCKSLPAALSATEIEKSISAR
B1: binds. B2: binds. B3: binds.
